Assays:
[1] = target: T1, blue laccase (Sclerotinia sclerotiorum, UniProt A7EM18); test: UV-vis after desalting; type: binding; settings: covalent, adduct of the radical product formed on turnover, site not identified; 25 mM MES pH 6.3
T1 construct: gene SS1G_06365; native, secreted, purified from culture medium; ~66 kDa glycoprotein; blue form (phenolics removed by preparative native PAGE or low-coloured medium)
T1 sequence (A7EM18 28-577): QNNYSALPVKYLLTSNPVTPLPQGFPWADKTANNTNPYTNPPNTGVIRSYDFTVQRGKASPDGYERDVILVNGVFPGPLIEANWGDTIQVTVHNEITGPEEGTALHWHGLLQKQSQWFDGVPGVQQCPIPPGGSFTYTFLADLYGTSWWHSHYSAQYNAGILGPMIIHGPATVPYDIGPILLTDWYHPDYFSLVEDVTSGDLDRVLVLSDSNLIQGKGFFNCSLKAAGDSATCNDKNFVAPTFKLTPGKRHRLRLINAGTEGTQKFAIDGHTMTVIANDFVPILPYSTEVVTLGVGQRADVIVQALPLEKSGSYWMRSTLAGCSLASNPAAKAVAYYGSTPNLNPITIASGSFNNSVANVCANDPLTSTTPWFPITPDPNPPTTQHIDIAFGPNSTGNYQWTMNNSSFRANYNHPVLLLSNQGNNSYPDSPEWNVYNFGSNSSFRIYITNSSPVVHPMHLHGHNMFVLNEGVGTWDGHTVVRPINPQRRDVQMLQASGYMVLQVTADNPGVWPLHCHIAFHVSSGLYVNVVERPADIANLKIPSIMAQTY

[2] = substrate: CCn1c(=NN=c2sc3cc(S(=O)(=O)O)ccc3n2CC)sc2cc(S(=O)(=O)O)ccc21; test: purified protein; type: biochemical, Sclerotinia sclerotiorum; settings: 50 mM acetate pH 4, relative SD 5–20%
[3] = substrate: Cc1cc(-c2cc(C)c(N)c(C)c2)cc(C)c1N; test: purified protein; type: biochemical, Sclerotinia sclerotiorum; settings: 50 mM acetate pH 4, relative SD 5–20%

Molecule: COc1ccccc1O [guaiacol]
- UV-vis after desalting [1]: purple with ABTS, red with guaiacol, orange with TMB

Molecule: Cc1cc(-c2cc(C)c(N)c(C)c2)cc(C)c1N [TMB, 3,3’,5,5’-tetramethylbenzidine]
- UV-vis after desalting [1]: purple with ABTS, red with guaiacol, orange with TMB

B1: yellow laccase (Sclerotinia sclerotiorum 1980 UF-70) (protein)
chain: T1 sequence (A7EM18 28-577)
notes: native, secreted, purified from culture medium; ~66 kDa; as-isolated yellow form, natural covalent phenolic adduct of the same protein as P1
- Km [2]: 14.1 µM
- kcat [2]: 5.7 s⁻¹
- Km [3]: 2.70 µM
- kcat [3]: 3.1 s⁻¹
